We go through three molecules from US6420345 (dated 2002).

Among the targets are CDK2/cyclin E complex (UniProt P24941 1-298; P24864 16-410); CDC2/cyclin B complex (UniProt P06493 1-297; P14635 1-433); CDK4/cyclin D1 complex (UniProt P11802 1-303; P24385 1-295).
What all share (test): in vitro kinase assay

CDK4/cyclin D1 complex, sequence (P11802 whole entry, chain 1 of 2): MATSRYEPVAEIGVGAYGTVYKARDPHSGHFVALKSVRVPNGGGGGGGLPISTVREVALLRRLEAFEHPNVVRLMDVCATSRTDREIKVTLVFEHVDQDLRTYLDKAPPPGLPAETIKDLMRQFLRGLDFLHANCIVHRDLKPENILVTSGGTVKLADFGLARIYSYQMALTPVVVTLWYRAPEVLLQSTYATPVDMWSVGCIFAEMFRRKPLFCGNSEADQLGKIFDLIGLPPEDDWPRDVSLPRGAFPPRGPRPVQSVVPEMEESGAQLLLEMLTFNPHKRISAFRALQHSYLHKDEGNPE
CDK4/cyclin D1 complex, sequence (P24385 whole entry, chain 2 of 2): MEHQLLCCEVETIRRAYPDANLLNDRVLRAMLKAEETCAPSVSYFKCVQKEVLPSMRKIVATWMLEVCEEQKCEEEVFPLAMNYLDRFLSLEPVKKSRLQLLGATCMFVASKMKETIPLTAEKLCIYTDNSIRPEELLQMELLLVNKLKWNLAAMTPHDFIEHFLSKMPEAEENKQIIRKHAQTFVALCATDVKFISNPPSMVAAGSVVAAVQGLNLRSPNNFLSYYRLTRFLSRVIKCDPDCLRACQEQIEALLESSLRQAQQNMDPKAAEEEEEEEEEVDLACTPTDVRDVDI
CDC2/cyclin B complex, sequence (P06493 whole entry, chain 1 of 2): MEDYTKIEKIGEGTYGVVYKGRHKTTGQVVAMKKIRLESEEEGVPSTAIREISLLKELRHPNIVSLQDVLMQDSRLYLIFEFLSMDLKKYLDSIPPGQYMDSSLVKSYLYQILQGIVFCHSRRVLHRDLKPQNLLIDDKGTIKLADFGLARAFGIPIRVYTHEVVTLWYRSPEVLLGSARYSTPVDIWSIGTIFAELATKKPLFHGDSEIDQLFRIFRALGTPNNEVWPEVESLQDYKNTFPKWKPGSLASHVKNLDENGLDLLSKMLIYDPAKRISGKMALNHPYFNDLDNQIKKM
CDC2/cyclin B complex, sequence (P14635 whole entry, chain 2 of 2): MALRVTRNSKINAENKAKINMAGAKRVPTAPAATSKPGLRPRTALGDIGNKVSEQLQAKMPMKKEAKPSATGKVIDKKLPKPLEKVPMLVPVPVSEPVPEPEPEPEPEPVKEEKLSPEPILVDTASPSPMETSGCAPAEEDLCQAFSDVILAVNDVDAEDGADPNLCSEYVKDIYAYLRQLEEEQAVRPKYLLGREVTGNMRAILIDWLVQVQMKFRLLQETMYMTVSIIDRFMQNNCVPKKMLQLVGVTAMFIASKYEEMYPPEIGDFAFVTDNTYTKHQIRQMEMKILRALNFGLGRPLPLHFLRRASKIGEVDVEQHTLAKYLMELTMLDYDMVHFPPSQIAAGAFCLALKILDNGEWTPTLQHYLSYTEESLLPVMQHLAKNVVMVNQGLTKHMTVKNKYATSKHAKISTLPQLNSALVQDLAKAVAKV

B1: human p16 (other)
chain: MEPAAGSSMEPSADWLATAAARGRVEEVRALLEAGALPNAPNSYGRRPIQVMMMGSARVAELLLLHGAEPNCADPATLTRPVHDAAREGFLDTLVVLHRAGARLDVRDAWGRLPVDLAEELGHRDVARYLRAAAGGTRGSNHARIDAAEGPSDIPD
In general, IC50 refers to the midpoint of a concentration-inhibition curve. For the molecule B1, the 50% inhibitory concentration (IC50) with CDK2/cyclin E complex is > 1000 nM; with CDC2/cyclin B complex, > 1000 nM; in the assay with CDK4/cyclin D1 complex it was 100 nM.

B2: W10 (other)
chain: MGYPYDVPDYAKPSACRNLFGPVDHEELTRDLEKHCRDMEEASQRKWNFDFQNHKPLEGKYEWQEVEKGSLPEFYYRPPRGGGGSGGGGSGGGGSVEDPAAGSSMEPSADWLATAAARGRVEEVRALLEAGALPNAPNSYGRRPIQVMMMGSARVAELLLLHGAEPNCADPATLTRPVHDAAREGFLDTLVVLHRAGARLDVRDAWGRLPVDLAEELGHRDVARYLRAAAGGTRGSNHARIDAAEGPSDIPD
Consider B2, for which the IC50 is 3 nM with CDK2/cyclin E complex, 17 nM with CDC2/cyclin B complex and 38 nM with CDK4/cyclin D1 complex.

B3: W9 (other)
chain: MGYPYDVPDYAKPSACRNLFGPVDHEELTRDLEKHCRDMEEASQRKWNFDFQNHKPLEGKYEWQEVEKGSLPEFYYRPPRVEDPAAGSSMEPSADWLATAAARGRVEEVRALLEAGALPNAPNSYGRRPIQVMMMGSARVAELLLLHGAEPNCADPATLTRPVHDAAREGFLDTLVVLHRAGARLDVRDAWGRLPVDLAEELGHRDVARYLRAAAGGTRGSNHARIDAAEGPSDIPD
B3: the half-inhibitory concentration (IC50) with CDK2/cyclin E complex came out at 3.5 nM; in the assay with CDC2/cyclin B complex it was 18 nM; with CDK4/cyclin D1 complex, 47 nM.
